The values below come from patent US20240352128A1.

Assay [1] has as its target CD16b (human) (UniProt O75015). Put plainly: FACS. For orientation: A flow cytometer gives signals particle by particle.
Assay [2] addresses CD16a (human) (UniProt P08637). Put plainly: FACS.

Chain of CD16b (human) (O75015 17-200): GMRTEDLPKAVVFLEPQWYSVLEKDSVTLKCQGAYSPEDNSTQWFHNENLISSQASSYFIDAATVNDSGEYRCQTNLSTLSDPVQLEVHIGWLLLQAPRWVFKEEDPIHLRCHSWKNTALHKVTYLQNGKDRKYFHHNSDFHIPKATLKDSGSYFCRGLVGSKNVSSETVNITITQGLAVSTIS
Chain of CD16a (human) (P08637 17-254): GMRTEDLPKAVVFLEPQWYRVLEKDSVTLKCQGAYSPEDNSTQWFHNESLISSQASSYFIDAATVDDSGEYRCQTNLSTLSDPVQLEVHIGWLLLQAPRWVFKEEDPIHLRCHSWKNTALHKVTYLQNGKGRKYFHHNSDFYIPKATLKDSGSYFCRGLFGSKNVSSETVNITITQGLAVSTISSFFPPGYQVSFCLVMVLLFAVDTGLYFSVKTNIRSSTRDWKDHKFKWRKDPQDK

For the substance CD16A-mIgG1, the EC50 (as a rule, the concentration giving half of the maximal effect) in assay [1] came to 401 µM.

As to mouse IgG, the EC50 turned out to be 1950 µM in assay [2] and 1440 µM in assay [1].
